# Results: article PMC9019507, “OAT10/SLC22A13 Acts as a Renal Urate Re-Absorber: Clinico-Genetic and Functional Analyses With Pharmacological Impacts” (Frontiers in Pharmacology, 2022)
# Test system: T1, O=c1[nH]c(=O)c2[nH]c(=O)[nH]c2[nH]1
# T1 construct: full-length human OAT10 wild-type, EGFP-fused (pEGFP-N1)
# Assay: cells, lysate or membranes
# Assay type: cell-based, Homo sapiens
# Settings: Cl^-
# Chain of OAT10/SLC22A13 (Homo sapiens) (chain, as listed by the source): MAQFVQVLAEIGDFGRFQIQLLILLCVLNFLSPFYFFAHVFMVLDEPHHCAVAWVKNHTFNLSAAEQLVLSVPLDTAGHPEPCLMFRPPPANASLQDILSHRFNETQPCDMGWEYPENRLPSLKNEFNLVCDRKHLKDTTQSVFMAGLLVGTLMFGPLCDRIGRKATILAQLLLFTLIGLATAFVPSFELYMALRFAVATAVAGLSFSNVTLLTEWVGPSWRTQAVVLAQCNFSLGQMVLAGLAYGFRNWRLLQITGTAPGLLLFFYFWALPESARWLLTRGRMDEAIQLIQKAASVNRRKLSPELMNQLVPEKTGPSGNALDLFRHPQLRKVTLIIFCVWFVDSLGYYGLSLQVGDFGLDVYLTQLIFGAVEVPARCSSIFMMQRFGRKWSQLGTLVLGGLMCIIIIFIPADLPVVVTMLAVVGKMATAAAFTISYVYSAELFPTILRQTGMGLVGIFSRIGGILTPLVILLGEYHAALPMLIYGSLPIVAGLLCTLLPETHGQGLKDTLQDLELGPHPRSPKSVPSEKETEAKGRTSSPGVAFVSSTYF
substance,measurement,value
OAT10/SLC22A13 (Homo sapiens),Km,558 µM
